Assays:
[1] = tested on: HuCCT1, ssp-25, RBE, TFK; experiment: MTS growth inhibition, cholagiocarcinoma cells; assay type: cell-based; parameters: dose or concentration left out as unconfirmed; conditions: four cell lines HuCCT1, ssp-25, RBE, Day 5
Procedure: The growth inhibitory effect of hSD5 scFv on the four strains of cholagiocarcinoma cells was tested under different concentrations. At indicated concentrations, hSD5 scFv interacted with the cancer cells for 5 days, and the effects on the growth of cancer cells were observed by MTS assay. (FIG. 17C)

[2] = target: EphA2 (Homo sapiens, UniProt P29317); experiment: Flow cytometry binding specificity on 293T cells overexpressing EphA molecules: EphA2; parameters: expressed in transfected cells; host or cells: 293T; conditions: flow cytometry (FIG. 6A)
EphA2, sequence (P29317 24-976): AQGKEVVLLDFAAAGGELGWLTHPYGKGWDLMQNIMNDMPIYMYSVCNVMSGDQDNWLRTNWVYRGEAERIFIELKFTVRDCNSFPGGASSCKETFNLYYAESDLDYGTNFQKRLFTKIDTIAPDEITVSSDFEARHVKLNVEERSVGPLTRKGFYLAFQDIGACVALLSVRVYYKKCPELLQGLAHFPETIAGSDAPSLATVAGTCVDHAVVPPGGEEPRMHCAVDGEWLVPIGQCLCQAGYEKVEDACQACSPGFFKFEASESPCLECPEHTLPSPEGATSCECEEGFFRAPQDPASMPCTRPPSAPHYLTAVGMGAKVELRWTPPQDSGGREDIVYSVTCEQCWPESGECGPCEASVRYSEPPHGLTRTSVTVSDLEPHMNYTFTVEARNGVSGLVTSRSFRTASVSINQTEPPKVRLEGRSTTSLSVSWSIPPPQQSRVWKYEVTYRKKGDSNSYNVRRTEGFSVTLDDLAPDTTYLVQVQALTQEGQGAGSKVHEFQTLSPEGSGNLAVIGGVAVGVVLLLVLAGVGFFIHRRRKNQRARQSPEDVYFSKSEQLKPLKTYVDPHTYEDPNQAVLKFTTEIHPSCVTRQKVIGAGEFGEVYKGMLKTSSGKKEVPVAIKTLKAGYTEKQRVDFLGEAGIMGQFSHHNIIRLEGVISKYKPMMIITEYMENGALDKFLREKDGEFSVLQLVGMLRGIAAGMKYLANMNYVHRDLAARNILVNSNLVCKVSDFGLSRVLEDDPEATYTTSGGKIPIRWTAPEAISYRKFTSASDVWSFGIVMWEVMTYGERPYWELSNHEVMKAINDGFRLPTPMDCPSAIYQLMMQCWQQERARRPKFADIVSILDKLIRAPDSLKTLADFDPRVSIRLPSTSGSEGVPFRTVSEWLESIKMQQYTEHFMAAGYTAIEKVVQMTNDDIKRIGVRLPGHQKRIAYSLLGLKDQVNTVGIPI
Procedure: (§1) To detect the binding specificity of scFv, 293T cells were transformed with EphA1-A8 plasmids individually for overexpression of different EphA molecules. The cell line was freshly prepared and washed with FACS buffer (2% FBS in PBS). The cells were seeded at 1×10^5 cells/well into a 96-well Ubottom plate and incubated with scFv for 1 h at 4° C. After the plate was washed with FACS buffer, the anti-hemagglutinin (HA) antibody was added for scFv binding detection (scFv was fused with a HA tag) and subsequently developed using an FITC-conjugated secondary antibody. Finally, the cell binding signal was analyzed using a FACS can flow cytometer.

[3] = tested on: other Eph family proteins (EphA1-A8); experiment: Flow cytometry binding specificity on 293T cells overexpressing EphA molecules: other family proteins; conditions: cells overexpressing EphA1-A8 (FIG. 6A)
Procedure: as §1

[4] = tested on: BxPc-3 and Mia PaCa-2 cells; experiment: Molecule signaling by Western blotting; assay type: cell-based, human
Procedure: […] The cells were collected and lysed using lysis buffer [50 mM Tris-HCl (pH 7.5), 50 mM NaCl, 5 mM ethylenediaminetetraacetic acid, and 1% Triton X-100], and a mixture of proteinase inhibitors (Roche Applied Science) was added. The protein concentration of the cell lysate was measured through the Coomassie Plus (Bradford) Protein Assay (Thermo Fisher Scientific). Samples were run on reducing SDS-PAGE for Western blotting analysis and were detected using antibodies against p-EphA2, EphA2, p-AKT, AKT, p-ERK, ERK, p-FAK, FAK, pSTAT3, STAT3 (Cell Signaling Technology), and β-actin (GeneTex).

B1: scFv hSD5: humanized anti-EphA2 scFv, SEQ ID NO: 12 (light chain SEQ ID NO: 8, heavy chain SEQ ID NO: 10) (protein)
scFv: LTQPPSVSVSPGQTVRITCSGSSGSYGWYQQKSPGQAPVTLIYDNDKRPSGIPERFSGSSSGSTSTLTISGVQAEDEADYYCGSADSSTYVGMFGGGTKLTVLGQSSRSSQVQLVESGGGLVQPGGSLRLSCAASGFTFSDYGMGWVRQAPGKGLEWVAGISAAGSFTPYGAAVKGRFTISRDNSKNTVYLQMNSLRAEDTAVYYCARIPSGYRAGEIYTWGQGTLVTVSS
For B1, the growth inhibition [1] was 40%-70%, the “binding to cells overexpressing EphA2” value [2] was “specifically binds to EphA2 molecules” and the “cross-binding to other Eph family proteins” value [3] was “does not exhibit cross-binding reactions”. The “LAMP1 and LAMP2 levels” value ([4]; 6 h after administration of scFv (FIG. 6C)) was “upregulated levels”, the EphA2 degradation ([4]; 6 h after administration of scFv, dose-dependent (FIG. 6C)) was “degraded EphA2 molecules” and the EphA2 level ([4]; 24 hours treatment (FIG. 6D)) was “almost completely degraded”. The “amount of pEphA2” value ([4]; 24 hours treatment (FIG. 6D)) was “decreased” and the “pSTAT3 and pFAK signals” value ([4]; 24 hours treatment (FIG. 6D)) was “dose-dependent decrease”.

Source: patent publication US20250340655A1, “EPHA2-TARGETING ANTIBODIES AND THEIR APPLICATIONS IN CANCER TREATMENT” (TAIPEI MEDICAL UNIVERSITY, priority 2022, published 2025)
